Biological target: Human STIM1, N-terminally ECFP-tagged, Q13586-1
Experiment: FRET microscopy (Eapp) in cells
Conditions: read off a plot

response (+TG (1 μM), +UV, n = 9, parent: est. 0.11) [Eapp] | response (+TG (1 μM), -UV, n = 9, parent: est. 0.11) [Eapp] | response (-TG, +UV, n = 9, parent: est. 0.010) [Eapp] | response (-TG, -UV, n = 9, parent: est. 0.008) [Eapp] | response (+TG (1 μM), +UV, n = 8) [Eapp] | response (+TG (1 μM), -UV, n = 8) [Eapp] | response (-TG, +UV, n = 8) [Eapp] | response (-TG, -UV, n = 8) [Eapp] | Substance
0.004 | 0.002 | 0.003 | 0.006 | – | – | – | – | Orai1 A137Bpa, C-terminally YFP-labelled (from UniProt Q96D31-1) L273D
– | – | – | – | 0.11 | 0.11 | 0.01 | 0.008 | Human Orai1 wild-type, C-terminally YFP-labelled (from UniProt Q96D31-1) A137Bpa

Reference: paper PMC9995687
